The results in this text go back to PMC5814282, “Biophysical studies and NMR structure of YAP2 WW domain - LATS1 PPxY motif complexes reveal the basis of their interaction” (Oncotarget, 2018).

The test system of test [1] is WW12. The test is described as follows: Co-expression, affinity and gel filtration chromatography of WW12-PY12. Format: binding, human. The conditions noted are these: WW12 and PY12 co-expressed in E. coli. How it is done: Cells were harvested by spinning at 4,000 g for 20 min and lysed by sonication in buffer containing 50 mM Tris-HCl pH 7.0, 200 mM NaCl, 5% glycerol, 2 mM DTT, 0.5% Triton X-100 and 1mM PMSF. […] The GST tag was cleaved overnight using PreScission Protease. In the case of WW12-PY12 complex, an additional Ni-NTA chromatography step was performed, as PY12 contained a His-tag. The eluted proteins were further purified using FPLC Superdex 75 gel filtration in buffer containing 20 mM Tris-HCl pH 7.0, 100 mM NaCl, 5% glycerol and 2 mM DTT. The purity and quality of the purified proteins were assessed using SDS polyacrylamide gel electrophoresis (SDS-PAGE) and dynamic light scattering (DLS).
A general note: SEC sorts molecules by how far they enter the pores of the column.

Test [2] deals with WW12 (YAP2, both WW domains). The test is described as follows: ITC, WW12 versus PY12. Format: binding, human. The conditions noted are these: 25°C, 2 mM DTT, 2 mM EDTA. As for the experimental part: ITC experiments were performed using the MicroCal VP-ITC titration calorimeter (MicroCal-Malvern). […] The proteins and peptides used were prepared in the same buffer containing 20 mM Tris-HCl pH 7.0 and 100 mM NaCl. Protein concentrations varying from 20 to 70 μM were titrated against peptide concentrations ranging from 0.5 to 1.8 mM at 25°C. The peptide samples were also injected into buffer as a reference to estimate the heat of dilution. In the case of WW12 vs PY12, the buffer used was 20 mM Tris-HCl pH 7.0, 100 mM NaCl, 3% glycerol, 2 mM DTT and 2 mM EDTA. All samples were degassed and spun before the experiment. The binding isotherms were analyzed employing a model that considered a single ligand binding site implemented in Origin 7 (OriginLab).
In general terms: In ITC the heat of successive injections is recorded.

B1: PY12: LATS1 region PY12 (containing both PPxY motifs; aa 361-567) (protein)
chain: NVVPAGTVNRQPPPPYPLTAANGQSPSALQTGGSAAPSSYTNGSIPQSMMVPNRNSHNMELYNISVPGLQTNWPQSSSAPAQSSPSSGHEIPTWQPNIPVRSNSFNNPLGNRASHSANSQPSATTVTAITPAPIQQPVKSMRVLKPELQTALAPTHPSWIPQPIQTVQPSPFPEGTASNVTVMPPVAEAPNYQGPPPPYPKHLLHQN
modifications: left off: His-tag, end not stated, kept
Broadly, the Kd is the free concentration of one partner at which half of the binding sites on the other are occupied at equilibrium, for simple one-to-one binding. Regarding B1, the complex formation entry in test [1] is listed as “formed a tight complex”. The molecule also returned a Kd in test [2] (ITC VP-ITC, 20 mM Tris-HCl pH 7.0, 100 mM NaCl, 3% glycerol, single ligand binding site model) of 9.6 µM. For the same molecule, in test [2] (ITC, pH 7.0, 3% glycerol), the “-TΔS” value worked out at 33.4 kcal/mol, the ΔG was -6.8 kcal/mol and the ΔH is -40.2 kcal/mol.
